# Test results as given in US20210246166A1 (Bayer, published 2021).
# Bridge positions count the residues as written; N and C are the ends. Square brackets hold non-standard residues; d marks the D form. Primed or numbered codes have the meaning given here. Ends that are not written are not given here. * marks the point of attachment. Tranexamic″ = tranexamic acid, NC[C@H]1CC[C@@H](C(=O)*)CC1; Oic = O=C(O)[C@@H]1C[C@@H]2CCCC[C@@H]2N1; Cyclopropylacetic acid = O=C(CC1CC1)*; Cyclobutylacetic = O=C(CC1CCC1)*; NMeI = CC[C@H](C)[C@H](NC)C(=O)O; aIle = CC[C@@H](C)[C@H](N)C(=O)O; tBuAla = CC(C)(C)C[C@H](N)C(=O)O; aThr = C[C@H](O)[C@H](N)C(=O)O; Chg = N[C@H](C(=O)O)C1CCCCC1; Pen = CC(C)(S)[C@H](N)C(=O)O; NMeC = CN[C@@H](CS)C(=O)O; Aib = CC(C)(N)C(=O)O; Sar = CNCC(=O)O
# T1: Recombinant human MASP1 enzyme (fragment corresponding to amino acids 297-699, C-terminal His Tag) (human, UniProt P48740 297-699)
# T1 sequence: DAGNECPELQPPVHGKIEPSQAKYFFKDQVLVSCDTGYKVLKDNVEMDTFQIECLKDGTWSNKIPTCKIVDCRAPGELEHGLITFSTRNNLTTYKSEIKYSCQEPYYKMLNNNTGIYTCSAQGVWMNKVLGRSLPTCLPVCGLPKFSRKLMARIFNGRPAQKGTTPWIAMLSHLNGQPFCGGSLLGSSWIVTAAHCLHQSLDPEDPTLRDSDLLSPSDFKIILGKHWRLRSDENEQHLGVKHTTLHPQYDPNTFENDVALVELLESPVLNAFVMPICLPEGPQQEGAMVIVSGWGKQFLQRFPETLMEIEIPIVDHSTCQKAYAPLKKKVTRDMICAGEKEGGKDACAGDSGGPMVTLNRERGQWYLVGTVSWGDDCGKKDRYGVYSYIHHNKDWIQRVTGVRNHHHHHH
# B1: ((N-Me)G)-IC+SRSLPP-(Chg)-C+IPD-NH2 (peptide)
# peptide: [Sar]ICSRSLPP[Chg]CIPD-NH2
# modifications: disulfide 3-11; N-terminus assumed
# SMILES: CC[C@H](C)[C@H](NC(=O)CNC)C(=O)N[C@H]1CSSC[C@@H](C(=O)N[C@H](C(=O)N2CCC[C@H]2C(=O)N[C@@H](CC(=O)O)C(N)=O)[C@@H](C)CC)NC(=O)[C@H](C2CCCCC2)NC(=O)[C@@H]2CCCN2C(=O)[C@@H]2CCCN2C(=O)[C@H](CC(C)C)NC(=O)[C@H](CO)NC(=O)[C@H](CCCNC(=N)N)NC(=O)[C@H](CO)NC1=O
# B2: G-((N-Me)I)-C+SRSLPPIC+IPD-OH (peptide)
# peptide: G[NMeI]CSRSLPPICIPD-OH
# modifications: disulfide 3-11; N-terminus assumed
# SMILES: CC[C@H](C)[C@@H]1NC(=O)[C@@H]2CCCN2C(=O)[C@@H]2CCCN2C(=O)[C@H](CC(C)C)NC(=O)[C@H](CO)NC(=O)[C@H](CCCNC(=N)N)NC(=O)[C@H](CO)NC(=O)[C@@H](NC(=O)[C@H]([C@@H](C)CC)N(C)C(=O)CN)CSSC[C@@H](C(=O)N[C@H](C(=O)N2CCC[C@H]2C(=O)N[C@@H](CC(=O)O)C(=O)O)[C@@H](C)CC)NC1=O
# B3: (Tranexamic)-IC+SRS-((tBu)A)-PPI-((N-Me)C)+I-NH2 (peptide)
# peptide: {Tranexamic″}-ICSRS[tBuAla]PPI[NMeC]I-NH2
# modifications: disulfide 2-10
# SMILES: CC[C@H](C)[C@H](NC(=O)[C@@H]1CSSC[C@H](NC(=O)[C@@H](NC(=O)[C@H]2CC[C@@H](CN)CC2)[C@@H](C)CC)C(=O)N[C@@H](CO)C(=O)N[C@@H](CCCNC(=N)N)C(=O)N[C@@H](CO)C(=O)N[C@@H](CC(C)(C)C)C(=O)N2CCC[C@H]2C(=O)N2CCC[C@H]2C(=O)N[C@@H]([C@@H](C)CC)C(=O)N1C)C(N)=O
# B4: (Cyclobutylacetic)-IC+SRS-((tBu)A)-PPI-(Pen)+IP-NH2 (peptide)
# peptide: Cyclobutylacetic-ICSRS[tBuAla]PPI[Pen]IP-NH2
# modifications: disulfide 2-10
# SMILES: CC[C@H](C)[C@H](NC(=O)CC1CCC1)C(=O)N[C@H]1CSSC(C)(C)[C@@H](C(=O)N[C@H](C(=O)N2CCC[C@H]2C(N)=O)[C@@H](C)CC)NC(=O)[C@H]([C@@H](C)CC)NC(=O)[C@@H]2CCCN2C(=O)[C@@H]2CCCN2C(=O)[C@H](CC(C)(C)C)NC(=O)[C@H](CO)NC(=O)[C@H](CCCNC(=N)N)NC(=O)[C@H](CO)NC1=O
# B5: ((N-Me)G)-IC+SRSLPPIC+(allo-I)-PD-NH2 (peptide)
# peptide: [Sar]ICSRSLPPIC[aIle]PD-NH2
# modifications: disulfide 3-11; N-terminus assumed
# SMILES: CC[C@@H](C)[C@H](NC(=O)[C@@H]1CSSC[C@H](NC(=O)[C@@H](NC(=O)CNC)[C@@H](C)CC)C(=O)N[C@@H](CO)C(=O)N[C@@H](CCCNC(=N)N)C(=O)N[C@@H](CO)C(=O)N[C@@H](CC(C)C)C(=O)N2CCC[C@H]2C(=O)N2CCC[C@H]2C(=O)N[C@@H]([C@@H](C)CC)C(=O)N1)C(=O)N1CCC[C@H]1C(=O)N[C@@H](CC(=O)O)C(N)=O
# B6: G-((N-Me)I)-C+SRSLPPIC+IPd-OH (peptide)
# peptide: G[NMeI]CSRSLPPICIP[dD]-OH
# modifications: disulfide 3-11; N-terminus assumed
# SMILES: CC[C@H](C)[C@@H]1NC(=O)[C@@H]2CCCN2C(=O)[C@@H]2CCCN2C(=O)[C@H](CC(C)C)NC(=O)[C@H](CO)NC(=O)[C@H](CCCNC(=N)N)NC(=O)[C@H](CO)NC(=O)[C@@H](NC(=O)[C@H]([C@@H](C)CC)N(C)C(=O)CN)CSSC[C@@H](C(=O)N[C@H](C(=O)N2CCC[C@H]2C(=O)N[C@H](CC(=O)O)C(=O)O)[C@@H](C)CC)NC1=O
# B7: AIC+SR-(allo-T)-LPPIC+IPD-NH2 (peptide)
# peptide: AICSR[aThr]LPPICIPD-NH2
# modifications: disulfide 3-11; N-terminus assumed
# SMILES: CC[C@H](C)[C@H](NC(=O)[C@H](C)N)C(=O)N[C@H]1CSSC[C@@H](C(=O)N[C@H](C(=O)N2CCC[C@H]2C(=O)N[C@@H](CC(=O)O)C(N)=O)[C@@H](C)CC)NC(=O)[C@H]([C@@H](C)CC)NC(=O)[C@@H]2CCCN2C(=O)[C@@H]2CCCN2C(=O)[C@H](CC(C)C)NC(=O)[C@H]([C@H](C)O)NC(=O)[C@H](CCCNC(=N)N)NC(=O)[C@H](CO)NC1=O
# B8: (Cyclopropylacetic acid)-IC+SRS-((tBu)A)-PPI-((N-Me)C)+I-NH2 (peptide)
# peptide: {Cyclopropylacetic acid}-ICSRS[tBuAla]PPI[NMeC]I-NH2
# modifications: disulfide 2-10
# SMILES: CC[C@H](C)[C@H](NC(=O)[C@@H]1CSSC[C@H](NC(=O)[C@@H](NC(=O)CC2CC2)[C@@H](C)CC)C(=O)N[C@@H](CO)C(=O)N[C@@H](CCCNC(=N)N)C(=O)N[C@@H](CO)C(=O)N[C@@H](CC(C)(C)C)C(=O)N2CCC[C@H]2C(=O)N2CCC[C@H]2C(=O)N[C@@H]([C@@H](C)CC)C(=O)N1C)C(N)=O
# B9: AIC+SRSLP-(Oic)-(Chg)-C+IPD-NH2 (peptide)
# peptide: AICSRSLP[Oic][Chg]CIPD-NH2
# modifications: disulfide 3-11; N-terminus assumed
# SMILES: CC[C@H](C)[C@H](NC(=O)[C@H](C)N)C(=O)N[C@H]1CSSC[C@@H](C(=O)N[C@H](C(=O)N2CCC[C@H]2C(=O)N[C@@H](CC(=O)O)C(N)=O)[C@@H](C)CC)NC(=O)[C@H](C2CCCCC2)NC(=O)[C@@H]2C[C@@H]3CCCC[C@@H]3N2C(=O)[C@@H]2CCCN2C(=O)[C@H](CC(C)C)NC(=O)[C@H](CO)NC(=O)[C@H](CCCNC(=N)N)NC(=O)[C@H](CO)NC1=O
# B10: AIC+SRS-((tBu)A)-P-(Oic)-I-((N-Me)C)+IPD-NH2 (peptide)
# peptide: AICSRS[tBuAla]P[Oic]I[NMeC]IPD-NH2
# modifications: disulfide 3-11; N-terminus assumed
# SMILES: CC[C@H](C)[C@H](NC(=O)[C@H](C)N)C(=O)N[C@H]1CSSC[C@@H](C(=O)N[C@H](C(=O)N2CCC[C@H]2C(=O)N[C@@H](CC(=O)O)C(N)=O)[C@@H](C)CC)N(C)C(=O)[C@H]([C@@H](C)CC)NC(=O)[C@@H]2C[C@@H]3CCCC[C@@H]3N2C(=O)[C@@H]2CCCN2C(=O)[C@H](CC(C)(C)C)NC(=O)[C@H](CO)NC(=O)[C@H](CCCNC(=N)N)NC(=O)[C@H](CO)NC1=O
# B11: ((N-Me)G)-IC+SRSLPPIC+IPD-OH (peptide)
# peptide: [Sar]ICSRSLPPICIPD-OH
# modifications: disulfide 3-11; N-terminus assumed
# SMILES: CC[C@H](C)[C@H](NC(=O)CNC)C(=O)N[C@H]1CSSC[C@@H](C(=O)N[C@H](C(=O)N2CCC[C@H]2C(=O)N[C@@H](CC(=O)O)C(=O)O)[C@@H](C)CC)NC(=O)[C@H]([C@@H](C)CC)NC(=O)[C@@H]2CCCN2C(=O)[C@@H]2CCCN2C(=O)[C@H](CC(C)C)NC(=O)[C@H](CO)NC(=O)[C@H](CCCNC(=N)N)NC(=O)[C@H](CO)NC1=O
# B12: (Tranexamic)-IC+SRS-((tBu)A)-PPI-(Pen)+IP-NH2 (peptide)
# peptide: {Tranexamic″}-ICSRS[tBuAla]PPI[Pen]IP-NH2
# modifications: disulfide 2-10
# SMILES: CC[C@H](C)[C@@H]1NC(=O)[C@@H]2CCCN2C(=O)[C@@H]2CCCN2C(=O)[C@H](CC(C)(C)C)NC(=O)[C@H](CO)NC(=O)[C@H](CCCNC(=N)N)NC(=O)[C@H](CO)NC(=O)[C@@H](NC(=O)[C@@H](NC(=O)[C@H]2CC[C@@H](CN)CC2)[C@@H](C)CC)CSSC(C)(C)[C@@H](C(=O)N[C@H](C(=O)N2CCC[C@H]2C(N)=O)[C@@H](C)CC)NC1=O
# B13: Ac-IC+SRS-((tBu)A)-PPI-((N-Me)C)+I-NH2 (peptide)
# peptide: Ac-ICSRS[tBuAla]PPI[NMeC]I-NH2
# modifications: disulfide 2-10
# SMILES: CC[C@H](C)[C@H](NC(=O)[C@@H]1CSSC[C@H](NC(=O)[C@@H](NC(C)=O)[C@@H](C)CC)C(=O)N[C@@H](CO)C(=O)N[C@@H](CCCNC(=N)N)C(=O)N[C@@H](CO)C(=O)N[C@@H](CC(C)(C)C)C(=O)N2CCC[C@H]2C(=O)N2CCC[C@H]2C(=O)N[C@@H]([C@@H](C)CC)C(=O)N1C)C(N)=O
# B14: GIC+SRSLPPIC+I-(Aib)-D-OH (peptide)
# peptide: GICSRSLPPICI[Aib]D-OH
# modifications: disulfide 3-11; N-terminus assumed
# SMILES: CC[C@H](C)[C@H](NC(=O)CN)C(=O)N[C@H]1CSSC[C@@H](C(=O)N[C@H](C(=O)NC(C)(C)C(=O)N[C@@H](CC(=O)O)C(=O)O)[C@@H](C)CC)NC(=O)[C@H]([C@@H](C)CC)NC(=O)[C@@H]2CCCN2C(=O)[C@@H]2CCCN2C(=O)[C@H](CC(C)C)NC(=O)[C@H](CO)NC(=O)[C@H](CCCNC(=N)N)NC(=O)[C@H](CO)NC1=O
# Target: T1, Recombinant human MASP1 enzyme …
# Assay: cell-based or functional assay
row,human MASP1 IC50 [nM],Binder
1,15,B1
2,14,B2
3,15,B3
4,15,B4
5,14,B5
6,14,B6
7,14,B7
8,14,AICSRS[3‑(Trimethylsilyl)‑L‑alanine]P[Oic]I[NMeC]IPD-NH2 (disulfide 3-11) [AIC+SRS-(3-(Trimethylsilyl)-L-alanine)-P-(Oic)-I-((N-Me)C)+IPD-NH2]
9,13,B8
10,12,B9
11,12,B10
12,15,B11
13,12,B12
14,14,B13
15,16,B14

# Target: Recombinant human MASP2 enzyme (fragment corresponding to amino acids 297-686, C-terminal His Tag) (human, UniProt O00187 297-686)
# Sequence (O00187 other isoform, or with tags, fused parts or gaps limits assumed): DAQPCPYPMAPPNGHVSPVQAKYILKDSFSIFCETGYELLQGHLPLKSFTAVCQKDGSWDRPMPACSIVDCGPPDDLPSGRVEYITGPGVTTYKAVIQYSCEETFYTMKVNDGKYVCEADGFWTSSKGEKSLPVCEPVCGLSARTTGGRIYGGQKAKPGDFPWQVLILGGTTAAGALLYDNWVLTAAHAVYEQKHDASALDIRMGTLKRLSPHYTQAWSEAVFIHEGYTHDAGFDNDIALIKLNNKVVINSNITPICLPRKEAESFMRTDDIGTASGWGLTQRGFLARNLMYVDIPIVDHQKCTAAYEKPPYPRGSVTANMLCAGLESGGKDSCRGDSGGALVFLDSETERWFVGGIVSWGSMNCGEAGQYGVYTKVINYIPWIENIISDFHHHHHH
# Assay: cell-based or functional assay
row,human MASP2 IC50 [nM],Binder
1,891,B1
2,1100,B2
3,26,B3
4,9.3,B4
5,170,B5
6,1300,B6
7,330,B7
8,1100,AICSRS[3‑(Trimethylsilyl)‑L‑alanine]P[Oic]I[NMeC]IPD-NH2 (disulfide 3-11) [AIC+SRS-(3-(Trimethylsilyl)-L-alanine)-P-(Oic)-I-((N-Me)C)+IPD-NH2]
9,55,B8
10,290,B9
11,370,B10
12,535,B11
13,17,B12
14,61,B13
15,160,B14
